According to article doi:10.1101/2021.07.21.453268 (bioRxiv, 2021):

Molecular target: T1, 3HA-Atg13 (S. cerevisiae, UniProt Q06628 1-738, hyper-phosphorylated (sites not given))
T1 sequence (looked up): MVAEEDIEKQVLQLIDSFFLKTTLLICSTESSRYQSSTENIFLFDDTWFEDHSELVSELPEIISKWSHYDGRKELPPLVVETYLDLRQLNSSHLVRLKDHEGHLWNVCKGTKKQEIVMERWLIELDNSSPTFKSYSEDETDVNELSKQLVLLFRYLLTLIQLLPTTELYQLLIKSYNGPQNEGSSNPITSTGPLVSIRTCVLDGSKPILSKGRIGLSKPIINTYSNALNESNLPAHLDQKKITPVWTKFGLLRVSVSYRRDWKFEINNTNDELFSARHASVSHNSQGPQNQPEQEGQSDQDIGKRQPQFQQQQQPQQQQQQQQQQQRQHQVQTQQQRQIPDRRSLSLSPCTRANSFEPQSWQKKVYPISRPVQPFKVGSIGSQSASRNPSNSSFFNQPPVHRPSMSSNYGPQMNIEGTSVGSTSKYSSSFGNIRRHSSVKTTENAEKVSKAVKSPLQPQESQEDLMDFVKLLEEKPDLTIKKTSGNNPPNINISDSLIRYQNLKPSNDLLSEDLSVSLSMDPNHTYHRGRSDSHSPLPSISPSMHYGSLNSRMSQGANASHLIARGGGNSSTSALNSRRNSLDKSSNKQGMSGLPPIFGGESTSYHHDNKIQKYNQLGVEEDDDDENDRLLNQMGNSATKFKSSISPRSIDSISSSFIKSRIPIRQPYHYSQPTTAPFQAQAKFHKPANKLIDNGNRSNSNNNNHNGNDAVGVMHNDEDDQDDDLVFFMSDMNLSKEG
Assay: pull-down

B1: 6His-3FLAG-Cdc14m (enzyme, S. cerevisiae, UniProt Q00684 1-551, looked up)
chain: MRRSVYLDNTIEFLRGRVYLGAYDYTPEDTDELVFFTVEDAIFYNSFHLDFGPMNIGHLYRFAVIFHEILNDPENANKAVVFYSSASTRQRANAACMLCCYMILVQAWTPHQVLQPLAQVDPPFMPFRDAGYSNADFEITIQDVVYGVWRAKEKGLIDLHSFNLESYEKYEHVEFGDFNVLTPDFIAFASPQEDHPKGYLATKSSHLNQPFKSVLNFFANNNVQLVVRLNSHLYNKKHFEDIGIQHLDLIFEDGTCPDLSIVKNFVGAAETIIKRGGKIAVHSKAGLGRTGCLIGAHLIYTYGFTANECIGFLRFIRPGMVVGPQQHWLYLHQNDFREWKYTTRISLKPSEAIGGLYPLISLEEYRLQKKKLKDDKRVAQNNIEGELRDLTMTPPSNGHGALSARNSSQPSTANNGSNSFKSSAVPQTSPGQPRKGQNGSNTIEDINNNRNPTSHANRKVVIESNNSDDESMQDTNGTSNHYPKVSRKKNDISSASSSRMEDNEPSATNINNAADDTILRQLLPKNRRVTSGRRTTSAAGGIRKISGSIKK
- binding result: binds
